assay: yeast display, Sf9 membrane polyspecificity reagent, FACS + sequencing; frameworks hold sequencing errors
Outline: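 A synthetic nanobody library was expressed on Saccharomyces cerevisiae BJ5465 by galactose induction for 36–48 hours. The library was stained for 1 hour at 4 °C with 10% biotinylated, detergent-solubilized Sf9 membrane reagent and enriched with streptavidin microbeads before FACS. Low and high (top ~1%) gates were set on anti-HA fluorescence for expression and streptavidin fluorescence for reagent binding, and each polyreactivity label reflects the gate of origin.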

Sequence | polyreactivity (PSR sort gate)
QVQLVESGCGLVHAGGSLRLSCAASGSNFGDYAMGCYRQAPGKERELVAAITKSGGTTYYADSVKGRFTISRDNAKNTVYLQMNSLKPEDTSFYYCAADPIRYRSRHKYGYWGQGTQVTVSS | low polyreactivity
QVQLVESGEGLVQAGGSLRLSCAASGRIFYSNDMGWYRQAPGKEREFVAAITDSGGSTYYADSVKGRFTISRDNAKNTVYLQMNSLKPEDTAGYYCAKRQYQSYIRGPYYYWGQGTQVNVSS | low polyreactivity
QVQLVESGGALDQAGGRLPLSSAASGSIFRINAMRLYRQAPGKVRELVAAISWSGGSTYYADSVKGRFTISRDNAKNTVYLQMNSLKQEDTAVYYCADVVSKSSFDYWVQGTQVTVSS | low polyreactivity
QVQLVESGGALVHAGGSLRLSCAASGSILKTYAMGWYIQAPGKEREFVAAMSSGGSTYYADSVKGRFTISRDNAKNTVYLQMNSLKPEDTAVYYCAADPWGDFVSFASYYYWGQGTQVTVSS | low polyreactivity
QVQLVESGGALVQAAGSLRLICAASVIISGCNGMGWYRQAPGKERELVASISDSGSSTYYADSVKGRFTISRDNAKNTVYLQMNSLKPEDTAVYYCATDLLASRYGYWGQGTQVTVSS | low polyreactivity
QVQLVESGGALVQAGGRLLLSCAASGRTFQGYVMGWYRQAPGKERELVAAISRGTSTYYADSVKGRFTISRDNAKNTVYLQMNSLKPEDTAGYYCAADGERRHYWGQGTQVTVSS | low polyreactivity
QVQLVESGGALVQAGGSIRLSCAASGFISRKNALGWYSQAPGKERELVATITKSGDTTYYADSVKGRFTISRDNAKNTVYLQMNSLKPEETAVYYCAAPLYYIGSWDYYVRYIYDYWGQGTQVTVSS | low polyreactivity
QVQLVESGGALVQAGGSLRISCAASGSIFPQNAMGWYRQAPEKERELVAAITTGGGRTYYADSVKGRFTISRDNVKNTVYLQMNSLKPEDTAVYYCYIRWPFRHYGSWGLGTQVTVSS | high polyreactivity
QVQLVESGGALVQAGGSLRLRCAASGTFFIYAMGWYRQAPGKEREFVATISTGGSTNYADSVKGRFTISRDNAKNTVYLQMNSLKPADTAVYYCAAEWLYPHDGGYRRPMDYWGQGTKVTVSS | low polyreactivity
QVQLVESGGALVQAGGSLRLSCAACGRTFWYNAMGWYRQAPGKERELVAAITRGGGRTYYADSVKGRFTISRDNAKNTVYLQMNSLKPEDTAVYYCAADSYYDMNYWGQGTQVTVSS | low polyreactivity
QVQLVESGGALVQAGGSLRLSCAASGFFIFTYAMGWYRQAPGKERELVAAISSRGGSTYYADSVKGRFTISRDNAKNTVYLQMNRLKPEDTAVYYCAAQAYGRYPYGYWGHGTQVTVSS | high polyreactivity
QVQLVESGGALVQAGGSLRLSCAASGFILNKNVMGWYRQPPRKERELVAAITGSGGRTYYADSVKGRFTISRDNAKNTVYLQMNCLKPEDTAVFYCNALPGTQYNYWGQGTQVTVSS | high polyreactivity
QVQLVESGGALVQAGGSLRLSCAASGFIVDAYAMGWYRQAPGKERELVAALTRGNTYYADSVKGRFTISRDNAKNTVYLQMTSLKPEDTGVSCCAARSWQSYRSQVTHSSTLDYWGQGTQVTVSS | low polyreactivity
QVQLVESGGALVQAGGSLRLSCAASGFTFYKNAMGWYRQAPGKERELVAAISRSAGSTYYADSVKGRFTISRDNAKNTVYFQMNSLKPEDTAVYYCNAVSDVKRYDYWGQGTQVTVSS | high polyreactivity
QVQLVESGGALVQAGGSLRLSCAASGIIFGGYALGWYRQEPGKERELVAAISCGGSTNYADSVKGRFTISRDNAKNTVYLQMNSLKPEDTSVYYCAADSASSYSYNYWGQGSQVTVSS | low polyreactivity
QVQLVESGGALVQAGGSLRLSCAASGITFEVYAMGLYRQAPGKAREFVAAITGSGSRTYYADSVKGRFTISRDNAKNTVYLQMNSLKPEDTAVYYCAVKGFSTRSYREFDYWAQGTQVTVSS | low polyreactivity
QVQLVESGGALVQAGGSLRLSCAASGLTFRDNAIGWYRKAPGKERELVDAISTNGGSTYYADSVKGRFTISRDNAKNTVYLQMYSLKPEVTAVYYCAADYDYQYRYYYWGQGTQVTVTS | low polyreactivity
QVQLVESGGALVQAGGSLRLSCAASGPIFGVYAMGWYRQAPGKERELVAAITYTGASTYYADSVKGRFTISRDNAKNTVYLQMNSLKPEDTAVYYCAGRLWRRSRFDYWGQGTQVTVSS | high polyreactivity
QVQLVESGGALVQAGGSLRLSCAASGRTFVSYVMGWYRQAPGKEREMVAAISGNGGRTYYADSVKGRFTISRDYAKKTVYLQMNSLKPEDTAVFYCAAELFVSYFDVLMYYWGQGTQVTVSS | high polyreactivity
QVQLVESGGALVQAGGSLRLSCAASGRTFWRNTMGWYRQAPGKEREFVAAITFSGVRTYYADSVKGRFTISRDNAKNTVYLQMNSLKPQDTAVYYCAKSRQYIGGFDYWGQGTQVTVSS | high polyreactivity
QVQLVESGGALVQAGGSLRLSCAASGRTINYYAMGWYRQAPGKERELVAAITWSGSSTYYADSVKGRFTISRDNAKYTVYLQMNSLKPEDTAVYYCNKASYTGYRSKRFYYWGQGTQVTVSS | high polyreactivity
QVQLVESGGALVQAGGSLRLSCAASGRTLESNAMGWYRQTPGKERELVAAISTIGGTYYADSVKGRFTLSRDNAKNTVYLQMNSLKPEDTAVYYCAKVWYDHSYIPIYDSWGQGTQVTVSS | low polyreactivity

Sequence | polyreactivity (PSR sort gate)
QVQLVESGGALVQAGGSLRLSCAASGSIFRYNAMGWYRQAPGKEREFVAIISYSGVRTYYADSVKGRFTISRDNAKNTVYLQMNSLKPADTAVYYCAADFKQKGHRTRTTYWGQGTQVTVSS | high polyreactivity
QVQLVESGGALVQAGGSLRLSCAASGSIFVSYAKGWSRPAPGKERELLATITTSTGSTYADSVKGRFTISRDNAKNTVYLQMNSLKPEDTAVYYCAARYQPWLKYDFDSWGQGTQVTVSS | low polyreactivity
QVQLVESGGALVQAGGSLRLSCAASGSILDPKAMGWYRQAPGKERELVASISRGDNTYYADSVKGRFTISRDNAKNTVYLQMNSLKPEDSAVYYCAADYSWVVWHDYWGQGTQVTVSS | low polyreactivity
QVQLVESGGALVQAGGSLRLSCAASGSTFAYYAMGWSRPAPGKERELVAAITRGGRTNYADSVKGRFTISRDNAKNTVYVQMNSLNREDTAVYYCAARSGRSWLTCSYDYWGQGTQVTVSS | high polyreactivity
QVQLVESGGALVQAGGSLRLSCAASGSTFLNYAMRGYRQATGKARELVAGINSGGSTNYADSVKGRFTISRDNAKNTVYLQMNSLKPEDTAVYYCAGDRVGNEYDYWGQGTQVTVSS | low polyreactivity
QVQLVESGGALVQAGGSLRLSCAASGSTLAYNAMGWYRQAPGKERELVAGIRGSGGSTYYADSVKGRFTISRDNAKNTVYLQMNSLKPEDTAVYYCNADSSVGHPPDGEYWGQGTQVTVSS | low polyreactivity
QVQLVESGGALVQAGGSLRLSCAASGYIFPGNAMGWYRQAPGKEREVVAGITSSGTSTYYADSVKGRFTISRDNAKNTVYLQMNSLKQEDTAVYYCAADALWGTGSGFDYWGQGTQVTVSS | low polyreactivity
QVQLVESGGALVQAGGSLRLSCAASRFTFTRYVMGWYSQAPGKERELVAAISINGGRTYYADSVKGRFTISRDNAKNTVYLQMNSLKPEDTAVYDCAAERYYWYTEMGYWGQGTQVTVSS | high polyreactivity
QVQLVESGGALVQAGGSLRLSCSASGSTLPGYAMVWYRQAPGKERELVAGISTRGGNTYYADSVKGRFTISRDNAKNTVYGQLNSLNPEDTAVYYCATTSSWRYGYWGEGTQVTVSS | high polyreactivity
QVQLVESGGALVQAGGSLRLSSAASGITFSRYAMGWYRQAPGKERELVARISSSGGSTNYADSVKGRFTISRDNAKNTVYLQMNSLKPEDTAVYYCAGATRGKVARRVTFDYWGQGTQVTVSS | high polyreactivity
QVQLVESGGALVQAGGSLRLTCAASGRIYTRYAMGWNRKATGKERELVAVITRSGGSTYYADSVKGRFTISRDNGKNTVYLQMNSLNPEVTAVYDCAAKYYGEMYYWGQGTQVTVSS | low polyreactivity
QVQLVESGGALVQAGGSLRLTCAYSGSTSYNNAMGWYRHAPGKERELYASLYMSAGSTYYADSVKGRFKISRDNEKNTVYLQMNSLKPEDTAVYYCAAESVAILGLVDPKGYGYWGQGTQVTVSS | low polyreactivity
QVQLVESGGALVQEAGSLRLRCAASGSIFDYKGMRWSRPAPGKERELVAAITSSGGSTYYADSVKGRFSISRDNAKNTDYLQMNSLIPEVSAFYYCAVDILYFPASYATQPVDYWGQGTQVTVSS | low polyreactivity
QVQLVESGGCIVQAGGSLRLSCAASGLNLDGYAMGWYRQAPGKERELVAAITRSGGRTYYADSVKGRFTISRDNANNTVYLQMNSLKPEDTAVYYCAALGWSVRYRYDYWGQGTQVTVSS | high polyreactivity
QVQLVESGGCIVQAGGSLRLSCAASGNIFAYNGKVWYRQAPGKERELVAAIRGSGTRTYYAESVKGRFTISRDNAKNTVYLHMNSLKPEDTAVYYCSARYFGTARTNYGYWGQGTQVTVSS | high polyreactivity
QVQLVESGGCLFQAGGSLRLSCAASGNIFLYYAMGWYRQAPGKERELVADIDSSGASTYYADSVKGRFTISRDNAKNTGYLQMNSLIPEDTAVYDCDKDSNRYSYYSPYDSWGQGTQVTVSS | low polyreactivity
QVQLVESGGCLVPAGGSLRLSCAASGFIIDWYDMAWYRQAPGKERELVAAITRSAGRTYYADSVKGRFTISRDIAKITVYLQMNSLKPEDTAVYYCAARSSSAGGGDGYWGQGTQVTLSS | high polyreactivity
QVQLVESGGCLVPAGGSLRLSGAASGSTYHFYAMGWYRHAQGKERELVASITSRGGNTHYADSVKGRFRISRDNAKNTVYFQMNSLKPEVTAVYSCAASGGWYGTYDYWGQGTQVTVSS | low polyreactivity
QVQLVESGGCLVQAGCSLRLSCAASGSTLWWYDMGWYRQAPGKERELVAAINSGGSTNYADSVKGRFTISRDNAKNTVYLQMNSLKAEDTAVYYCNTDGEVTYDYWGQGTQVTVSS | low polyreactivity
QVQLVESGGCLVQAGGRLRLSCAASGRIFHDNGMGWYRQAPGKERELVAAISRGGSTYYADSVKGRFTISRDNAKNTVYLQMNSRKPEDTAVYYCNVDSFRYRHTGYCDTRYGYWGQGTQVTVSS | high polyreactivity
QVQLVESGGCLVQAGGRLRLSCAASGSTFGRNAMGWYRQAPGKERELVAAISTSDGRTYYADSVKGRFTISRDNAKNTVYLQMNSLKPEDTAVYYCAADGETLPPRILGESEGDYWGQGTQVTVSS | low polyreactivity
